Source: a protein production outcome set (Wang et al. 2014)

Experiment: label from the status in PepcDB records

| Sequence | protein production |
| --- | --- |
| MNIEDDENKEKKETCLSYIKKINMSEIINDEAIGKRAEYLWNLALSAVYINVKLSMKYITLIKKITKNNLLFDNICCHYCNLIYIPFYNCKITHSPNQGKATYTCLLCKRKKKINLQHLSKHKNIYPLKHSDKHKPSTSNLSNVNFFLINEIDNYEIKKNNVPLNKDDTSNTENQLITKQENKNEDTLKDVSCADMQKEEHIINQDNIINQDNIINQDNIINQDNIINQDNIINQDNIINQDNIINQDNIINQDNIINQDNIINKNDMYQNLSYLFRIDYGINKDDTQKGNEIYDKSIVNESEKCKSVHIENNKNDDNKNMNSESKNIKNERKRKSQNNNIAQNKNQGFPNVNMNDGFLNFNKSKKKKGKSILDIL | failed |
| MNIFTEAAKLEEQNCPFAMAQIVDSRGSTPRHSAQMLVRADGSIVGTIGGGMVERKVIEESLQALQERKPRLFHGRMARNGADAVGSDCGGAMSVFISVHGMRPRLVLIGAGHVNRAIAQSAALLGFDIAVADIYRESLNPELFPPSTTLLHAESFGAAVEALDIRPDNFVLIATNNQDREALDKLIEQPIAWLGLLASRRKVQLFLRQLREKGVAEEHIARLHAPVGYNIGAETPQEIAISVLAEILQVKNNAPGGLMMKPSHPSGHQLVVIRGAGDIASGVALRLYHAGFKVIMLEVEKPTVIRCTVAFAQAVFDGEMTVEGVTARLATSSAEAMKLTERGFIPVMVDPACSLLDELKPLCVVDAILAKQNLGTRADMAPVTIALGPGFTAGKDCHAVIETNRGHWLGQVIYSGCAQENTGVPGNIMGHTTRRVIRAPAAGIMRSNVKLGDLVKEGDVIAWIGEHEIKAPLTGMVRGLLNDGLAVVGGFKIGDIDPRGETADFTSVSDKARAIGGGVLEALMMLMHQGVKATKEVLEVALEHHHHHH | failed |
| MNIGSMDIQKIGMITSYRNLAKRADWLWQQTPQQFGIWQNIQIQALSGKPDFLLMYQFDFPKDNQQTSLIDKLRQKLQNPQVNVESLLRDVPKEKIIYLLREPPLDEIVEKNKRYYQEAKKYCGYISGPDDFAPKPDYMPAIWYHNNSFRELNEMPVPEKVFPCSWITSGISRTVNHRRRLKFVELIQASEVKCDVYGRDLPIWAKSLGELGNKWYGMAPYYYNLSIENYADNDWYVSEKLWDALLAWCLPIYYGGPAADKLLPPGSFLRLPSLDEKGIAYIQEVTATPDAWYAAKDAIAEARQLILHKLNLLNWLSEFVTQFS | failed |
| MNIGTFDRLLFAYSIGSHILIVLMSIGLSVILPVLEYIAIKYKDVYYDLLTRRVAKALVMFFAVGTASGAVMAVELIDLFPKFMTIIAVVGVLPFYYEIFAFFLETIMLVSYYYYWDVFKNRMHHWLLTFGVAGGTLASAVFITMINAWMNTPNGFNISYYEKTGKLIDVNPFITALTPSTGREVFHVVIVTAFAGLMVLGAFFAYQYLRAKTEEAKTLYMKGLKVTFPMNMFLIIMAGLSGTLEMSGLLTYQPEKYAALDLNPYPIARDAPEHLFGTIVEKNGHYYVLGGIKIPFVQSLLAGNGNLNTPVPGLSQFPTSTWPPLAVHDTFDLMVIGGTLLGLFLLSVLIAWILKKKPYESKGFMVAQILFAILTIPIYIGGWVTDEVGRQPWIIYNVMTVYQAANYSPSIIVPGYLIMAFYTILMPFSYWYAFRLMKQGDVKKEISSYKMPSTAHGR | failed |
| MNIIMNINSKAKGFVCGAVAAATYGMNPLFTLPLYKEGMSVDSVLFYRYGFAVLILGILMKVQGQSFALKKNEVLPLIVGGLLFSASSLLLFLSYKHMDAGIASTILFVYPVMVALIMFLFFHEKVSLLTVFCILLALSGIGLLYKGEGGETLSLVGMLLVILSSLSYAVYIVGVNHSTLKLMSTAKLTFYALLFGLSIYIVRLNFCSDLQAVPSLPAWGNILAMAFLPTVISLVCTAVSIHTIGSTSTAILGALEPVTALFFGVMIFGERLTPRLMLGILMILVAVTFIVVGKPLMTFLKEEVAGGMKRKLTR | failed |
| MNIKEYLQQHPQWKKRIHGFIMHPVKTRPYWWIRVWQPFYIKKGRGSVIYSSVRKDLPPFHLFQMGKYSVVEDFSCLNNAVGDIVIGDYCRIGLGNTVIGPIRIDNGVNISQNVVLIGLDHNYQDITQGIIEQGITTSPIHIGEHTIIGANVIVLPGITIGKHCFIGAGCVVTQNIPDYCVTVGNPARIIKRYNPQSQTWEKI | failed |
| MNIMEIEKTNRMNALFEFYAALLTDKQMNYIELYYADDYSLAEIADEFGVSRQAVYDNIKRTEKILETYEMKLHMYSDYVVRSEIFDDMIAHYPHDEYLQEKISILTSIDNRE | not failed |
| MNIPAAEPRARMTLAEFHRLLADQHPFAQVLGIDVVDIGHGTARAVLPARDTHQRLGGIVAGPMLMGLADLTMYAAVVGATGQAGAVTANLTIHFLRKTSGAAVIADARVLKTGRLAMAEAILRCDGADEPVAHVVSAWAVPAP | failed |
| MNIQIKKRFLANLLLFSLFCLKAETLSEDHQILLSSDAFHRGDFAAAQKGYMNLYKQTNKVVYAKEAAISAASLGDIKTAMHLAMLYQKITNNRNDVSINKILVDGYAQMGQIDKAIELLHKIRKEEKTIATDNVLGTLYLTQKRLDKAFPLLNKFYNQVHDEDSLEKLITIYFLQNRKKEGLDLLQSHIDRYGCSEQLCQKALNTFTQFNELDLAKTTFARLYEKNPIVQNAQFYIGVLILLKEFDKAQKIAELFPFDRRLLLDLYTAQKKFDQASKQASLIYQEKKDPKFLGLEAIYHYESLSANKKKLTKEEMLPIIQKLEQATKERQAWLAKTKDKEDAQDAFFYNFLGYSLIDYDMDIKRGMDFVRKALALDSGSVLYLDSLAWGYYKLGNCLEAKKIFSSIAKESIQAEPELKEHNKIIQECKK | failed |
| MNIQSILSDKIKQAMILAGADQSCDALIRQSGKPQFGDYQANGIMAAAKKLGLNPREFAQKVLDNLQLSDIAEKLEIAGPGFINIFLNPTWLTTEISAALSHK | failed |
| MNIREIAAKCSKCGYCTTCPTYRIEGWETVSPRGKIQLALKYVDGEIDVDQKIVKDIFKCSVCGLCQEVCPVELPLIDFWEELRRTLVQKGLAPLSVHRKLREITFRNYNPYSGDQERRGDWADFEIKPAKTLYFAGCTASFRLQNLAKSTASVLEKLGIDFTIAGKNEYCCGSPFLRTGQKDIVERLFEKNYAYWQKMGIERIITSCPGCYRTISLDYPKIAEEKGYEFDIEVVHTVSILDKMGEFEKIDLKATYHDPCHLGRHMGMYEEPRNVIKRLGINFVEMERNREQALCCGAGGGLRSQFPEISFEIGRQRVLEAMETGAEYLITCCPFCEYHLSKSAEKLGNRIKVVDLVEIAEKLISP | failed |
| MNIRITNIQKQLHKYGIDGLLITKKENRQYATGFTGSAGVVLISADQAVFITDFRYVDQAKSQIQDAEIVMHKGNLEKEIAHQVSKLNIQKLGIEENNMTLQQYKNLQKYVHTEMIQVCEIIESIRIIKDTPEIETMKIAAHIADEAFHHILTFLKPGISENDVRDELEFFMRKKGATSSSFQIIVASGVRSSLPHGVASNKIIERSDIVTLDFGALYDGYCSDITRTVAIGEPSEEFKKIYNIVREALKRGTEAIKPGETAKRIDDITRNYITEHGYGQYFGHSTGHGLGLEIHEPLRLSQESKATLEEGMVVTVEPGIYIPNWGGCRIEDDIVITKDGYEVITKSNRELIVIPC | failed |
| MNIRPSQIKHKQRIASFITHAVVVVMGVLIVSVLFQSYQISSRLMAQEGQRTSVQTSSLIQSLFDFRLAALRIHQDSTAKNASLINALVSRDSSRLDEFFSSVDELELSNAPDLRFISSHDNILWDDGNASFYGIAQQELNKLIRRVAISGNWHLVQTPSEGKSVHILMRRSSLIEAGTGQVVGYLYVGIVLNDNFALLENIRSGSNSENLVLAVDTTPLVSTLKGNEPYSLDYVVHSAKDAMRDSFIVGQTFLEVESVPTYLCVYSIQTNQNVLTLRDNFYFWMAFALISMIGVSIASRWWLQKRIQREIETLMNYTHKLMDLDTKSEFIGSKIYEFDYFGRTLEQSFRRLANKEKQFEDLFNFALSPTMLWNTSGRLIRMNPSAQIQFLREDAQNHFLFEILERQLLPTITNAAQGNNPSDVTTEVDGRVYRWNLSPIMVEGQIISIITQGQDITTIAEAEKQSQAARREAEESARVRAEFLAKMSHELRTPLNGVLGVSQLLKRTPLNDEQREHVAVLCSSGEHLLAVLNDILDFSRLEQGKFRIQKNEFRLKELVCAIDRIYRPLCNEKGLELVVNSNITTAAIVRSDQIRINQILFNLLNNAIKFTHQGSIRVELQLIEGDPLAQLVIQVVDTGIGIREQDLTVIFEPFMQAESTTTREYGGSGLGLTIVHSLVEMLSGQLHVSSEYGIGTRFEIQLPIELVEKPDAPQQLLPAPDPQPLFDKTLRVLLVEDNHTNAFIAQAFCRKYGLDVSWVTDGLQAIEELKIHDYDLVLMDNQLPYLDGVETTRTIKKVLHLPVVVYACTADGLEETRQAFFHAGAEYVLVKPLKEQTLHKALEHFKHHHGQKNAGLN | failed |
| MNISLSRVHFPVTTLGPGQRLGLWFQGCSIRCAGCISADTWGPGKHPLPLAQVLDDLQPWLARAEGITLSGGEPFDQPEALLALLRGLRERTGVDILVYSGHSLETLQPLLQQAEGLLDALICDPFEQQQAQTLVLRGSDNQRLIFLTELGRQRLSTYQRPLHHEDRALDVMFDDDGSVWMAGIPRRDDVLRLRDLLHDQGHQLQISAHTSRRRLEHHHHHH | failed |
| MNITGIIAEYNPMHNGHIHHLEKTKEICKSDVILCVMSGDFVQRGEPAIIDKWSRAYAALSSGVDLVIELP | failed |
| MNIWIRGGTSDANTISKEIKRNFKDSFLILTTTTDFGGKIAENFADFVISEKMNYDNLKKTLVNKKIDVFIDATHPFATHASETGMKISKELNIPYIRYERPVEEFKDVFYVENFEEAAKLALKISKKNIFYMSGIKNLKTVSEIIPIEKLIVRILPTSVPEALKILPSKNIVAMQGVFSENLNKDLITDYNCDVIITKDSGKSGGLYEKVSGAVLAGAKPIIIKRPEINYPLKFEKIDELVNYLKN | failed |
| MNKERNIIIAKNIRKFLNDSNMSQKKLAELINIKPSTLSDYLNLRSNPSHGVIQRIADVFEVGKSDIDTTYKDDNDITSIYNKLTPPRQENVLNYANEQLEEQNSKGDNVVDINSYKQEKTPVNVNGCVSAGVGERLHDETLFTEMVKGPIPTHDLALKVNGDSMEPMFKDGEIIFVEKTHNIKNGQIGIFIIEEEAYVKKVFVEDDRLTLVSLNKDYDDLHFYRNESVRLIGKVIL | failed |
| MNKETVLYVVIALLVGILGTVLVVGVVNKQKPAPATAGIPAGGGSPVDYQQRIAEAEKVVANDPKNLQAWIQLGNDYFDTDQAQKAINAYGKALELDPTNANVLTDQGIMFKRVGWFDKAIANFEKAQQLDPKHLQSLYNLGVVYMSDLKQPAKAVKYWERYLELDPMGPNSQQIRTMLEEAKGMAQTPSPQGQLFRK | failed |
| MNKGILIVLLAGLVSACTHKEKNPLDSLPDMSAVRANLAFTCVHEADHLPPLDPEADQLFQYGRYLQKKEGPKNFNEVARYYRIAAAYGHYKANSNLQGLVSQGIADSPDAPKETIDLAAQLVNQGIPGGYYDIGHYLELGYGLKQDPEMALRYIRKAADLGNPDAQFYVAEKLAPIDNAPAIARQMWQCATDQGHGRAALTLGVDLKTDKLYPDAAKAFQQGAKSGSSTAALSLRDAFHNPSQSDQLNYLAVPHDPERSRRYGLIWKFLKDNDGRSPKVPDIDKIVPLPPAKLPPWDGTFQWEKDQAAAVPPQKPSDELIERLSKAKHLDPATGLPLAKPEQVAQMETEAAPPPARLPLGTIARTGDSCPQDGVWCVSLAKGMVADAEQSFLKGMELPSLTIYQPRRFAWMDNWMGVRQQTVPVAWKLVGYIHEA | failed |
| MNKHLKIQIMNIHSEREIYSARVLNAPIEIVYEAFANPSYLKNWWGPKGFTNTIHAFDLQPGGKWILTMHGPEKGNYENSSIFKIVEPQKLISWERKSKPLFDMEVEFKKLNNLQTEISFRMTFSTKEDCDKIRSFVEPQNEELRSIRKRNSEHKLIPTCIPRHPHWLVFQSRQ | failed |
